Patent publication US20190376133

Test system: T1, Pol6-67-X2 (Clostridium phage phiCPV4)
T1 sequence: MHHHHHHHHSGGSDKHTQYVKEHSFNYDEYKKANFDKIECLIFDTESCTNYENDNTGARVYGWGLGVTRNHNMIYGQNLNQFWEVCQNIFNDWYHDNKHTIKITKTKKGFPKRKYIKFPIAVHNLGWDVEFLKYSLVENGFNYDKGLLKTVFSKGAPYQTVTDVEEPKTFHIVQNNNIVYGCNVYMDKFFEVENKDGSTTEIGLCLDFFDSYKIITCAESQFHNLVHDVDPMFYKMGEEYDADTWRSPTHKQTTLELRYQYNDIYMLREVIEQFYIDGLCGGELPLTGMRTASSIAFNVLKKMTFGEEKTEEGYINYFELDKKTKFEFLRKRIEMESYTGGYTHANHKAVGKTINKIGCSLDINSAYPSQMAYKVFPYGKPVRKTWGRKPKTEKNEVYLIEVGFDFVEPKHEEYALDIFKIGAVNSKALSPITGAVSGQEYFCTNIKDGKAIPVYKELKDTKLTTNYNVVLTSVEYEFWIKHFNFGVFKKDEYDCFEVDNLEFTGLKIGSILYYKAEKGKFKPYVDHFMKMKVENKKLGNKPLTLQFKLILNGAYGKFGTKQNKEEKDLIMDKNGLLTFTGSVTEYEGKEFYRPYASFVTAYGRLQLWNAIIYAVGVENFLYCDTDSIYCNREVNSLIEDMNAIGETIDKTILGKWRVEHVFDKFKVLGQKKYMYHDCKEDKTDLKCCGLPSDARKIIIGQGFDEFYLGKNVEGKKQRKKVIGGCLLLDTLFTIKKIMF
Conditions: 5'-desthiobiotin-TEG; iSpC3 spacer between SEQ 15 and SEQ 22; 8x polymerase (26% at 1x); bound at 40 C with 1.2 uM polyphosphate nucleotides; extension 5 min at 30 C with 5 mM MgCl2, 10 uM nucleotides; % bound correlates …

Q: “ACTGCTGATCTGTTCCTGAATCGACTACTACTATCATCATACCACCTCAGCTGCACGTTAAGTGCAGCTGAGGTGG [Fluorescent Hairpin DNA template]” was tested. Which activity did it give?
A: 66 % extension
